Literature values, collected in article PMC4174909.

Target: His37 (UniProt position 37, IIGILHLILWI)

Substance: Matrix protein 2 (M2 proton channel) (Influenza A virus (strain not stated for the quoted pKa values; the experiments of this article use A/Udorn/72))
- pKa: 8.2 and about 6 and about 4 to 5
